From IntAct's records for PubMed 35512704

B1: Speckle-type POZ protein (Homo sapiens), O43791 (parent)
chain: MSRVPSPPPPAEMSSGPVAESWCYTQIKVVKFSYMWTINNFSFCREEMGEVIKSSTFSSGANDKLKWCLRVNPKGLDEESKDYLSLYLLLVSCPKSEVRAKFKFSILNAKGEETKAMESQRAYRFVQGKDWGFKKFIRRDFLLDEANGLLPDDKLTLFCEVSVVQDSVNISGQNTMNMVKVPECRLADELGGLWENSRFTDCCLCVAGQEFQAHKAILAARSPVFSAMFEHEMEESKKNRVEINDVEPEVFKEMMCFIYTGKAPNLDKMADDLLAAADKYALERLKVMCEDALCSNLSVENAAEILILADLHSADQLKTQAVDFINYHASDVLETSGWKSMVVSHPHLVAEAYRSLASAQCPFLGPPRKRLKQS
partner: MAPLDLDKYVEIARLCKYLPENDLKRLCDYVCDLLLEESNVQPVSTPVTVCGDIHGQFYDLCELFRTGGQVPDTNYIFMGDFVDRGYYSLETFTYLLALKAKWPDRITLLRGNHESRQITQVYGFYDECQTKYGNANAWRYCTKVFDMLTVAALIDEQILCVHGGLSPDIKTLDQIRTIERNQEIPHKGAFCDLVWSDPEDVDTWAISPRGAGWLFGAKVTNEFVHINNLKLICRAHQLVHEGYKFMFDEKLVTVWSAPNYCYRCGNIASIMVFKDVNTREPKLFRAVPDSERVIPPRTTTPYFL
B2: Speckle-type POZ protein (Homo sapiens), O43791 (parent)
chain: B1 chain
partner: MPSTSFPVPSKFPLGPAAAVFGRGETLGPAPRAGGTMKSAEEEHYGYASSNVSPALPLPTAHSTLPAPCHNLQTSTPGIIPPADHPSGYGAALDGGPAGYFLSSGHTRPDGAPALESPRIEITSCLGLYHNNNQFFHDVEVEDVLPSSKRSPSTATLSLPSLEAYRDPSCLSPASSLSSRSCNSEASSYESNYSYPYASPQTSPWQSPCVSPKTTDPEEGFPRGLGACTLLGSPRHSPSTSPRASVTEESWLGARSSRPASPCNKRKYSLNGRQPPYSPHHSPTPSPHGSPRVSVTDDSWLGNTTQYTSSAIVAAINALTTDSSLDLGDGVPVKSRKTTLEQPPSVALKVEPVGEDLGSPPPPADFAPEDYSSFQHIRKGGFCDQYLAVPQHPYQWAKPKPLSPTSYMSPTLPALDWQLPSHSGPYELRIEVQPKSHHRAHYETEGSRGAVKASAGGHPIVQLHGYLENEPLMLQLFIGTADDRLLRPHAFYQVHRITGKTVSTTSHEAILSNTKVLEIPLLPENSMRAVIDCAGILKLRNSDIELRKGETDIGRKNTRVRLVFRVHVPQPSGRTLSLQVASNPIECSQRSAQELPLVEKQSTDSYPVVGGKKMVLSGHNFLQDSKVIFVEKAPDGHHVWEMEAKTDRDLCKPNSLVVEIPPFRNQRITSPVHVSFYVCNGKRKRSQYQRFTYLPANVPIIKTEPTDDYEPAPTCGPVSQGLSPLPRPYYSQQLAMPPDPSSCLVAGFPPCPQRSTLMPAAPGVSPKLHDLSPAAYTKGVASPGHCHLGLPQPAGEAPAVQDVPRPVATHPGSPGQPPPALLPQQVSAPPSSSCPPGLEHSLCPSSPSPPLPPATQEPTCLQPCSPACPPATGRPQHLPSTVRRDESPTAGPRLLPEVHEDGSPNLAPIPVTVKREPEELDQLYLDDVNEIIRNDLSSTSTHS
B3: Speckle-type POZ protein (Homo sapiens), O43791 (parent)
chain: B1 chain
partner: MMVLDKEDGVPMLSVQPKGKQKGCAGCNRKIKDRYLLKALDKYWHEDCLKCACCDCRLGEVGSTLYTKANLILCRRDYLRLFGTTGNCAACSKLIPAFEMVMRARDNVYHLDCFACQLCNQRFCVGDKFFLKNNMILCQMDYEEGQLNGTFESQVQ
B4: Speckle-type POZ protein (Homo sapiens), O43791 (parent)
chain: B1 chain
partner: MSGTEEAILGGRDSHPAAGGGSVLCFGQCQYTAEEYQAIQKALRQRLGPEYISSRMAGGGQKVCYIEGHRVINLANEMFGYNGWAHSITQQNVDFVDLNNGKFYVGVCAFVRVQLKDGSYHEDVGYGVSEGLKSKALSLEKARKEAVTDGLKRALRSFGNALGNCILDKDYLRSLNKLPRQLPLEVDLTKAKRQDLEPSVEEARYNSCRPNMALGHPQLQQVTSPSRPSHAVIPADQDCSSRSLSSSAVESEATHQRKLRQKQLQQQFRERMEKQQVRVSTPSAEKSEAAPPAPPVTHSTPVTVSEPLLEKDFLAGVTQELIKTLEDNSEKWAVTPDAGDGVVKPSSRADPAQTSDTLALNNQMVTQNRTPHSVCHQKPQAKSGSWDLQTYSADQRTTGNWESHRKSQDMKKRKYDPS
B5: Speckle-type POZ protein (Homo sapiens), O43791 (parent)
chain: B1 chain
partner: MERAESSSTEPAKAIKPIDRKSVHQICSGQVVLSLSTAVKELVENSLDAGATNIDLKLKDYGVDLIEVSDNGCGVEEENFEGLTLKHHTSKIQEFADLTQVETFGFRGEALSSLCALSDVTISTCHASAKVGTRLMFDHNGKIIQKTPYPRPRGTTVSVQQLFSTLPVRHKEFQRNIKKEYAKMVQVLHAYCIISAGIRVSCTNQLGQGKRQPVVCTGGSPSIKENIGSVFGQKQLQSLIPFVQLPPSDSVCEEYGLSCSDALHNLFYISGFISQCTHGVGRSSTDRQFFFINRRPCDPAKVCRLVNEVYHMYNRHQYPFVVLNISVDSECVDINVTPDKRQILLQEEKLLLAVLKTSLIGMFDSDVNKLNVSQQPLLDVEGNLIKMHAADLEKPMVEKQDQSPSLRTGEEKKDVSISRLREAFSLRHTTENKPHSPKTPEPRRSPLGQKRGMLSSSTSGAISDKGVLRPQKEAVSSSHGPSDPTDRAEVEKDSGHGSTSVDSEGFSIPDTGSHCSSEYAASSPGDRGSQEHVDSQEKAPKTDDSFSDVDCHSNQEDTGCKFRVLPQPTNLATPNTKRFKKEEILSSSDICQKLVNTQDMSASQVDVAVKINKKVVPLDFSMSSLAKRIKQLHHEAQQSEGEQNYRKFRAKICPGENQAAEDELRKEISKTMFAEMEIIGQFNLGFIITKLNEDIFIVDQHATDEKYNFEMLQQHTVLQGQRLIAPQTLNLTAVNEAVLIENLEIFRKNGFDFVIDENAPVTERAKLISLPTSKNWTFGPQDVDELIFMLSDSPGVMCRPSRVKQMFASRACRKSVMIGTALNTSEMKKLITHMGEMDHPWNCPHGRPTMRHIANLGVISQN
B6: Speckle-type POZ protein (Homo sapiens), O43791 (parent)
chain: B1 chain
partner: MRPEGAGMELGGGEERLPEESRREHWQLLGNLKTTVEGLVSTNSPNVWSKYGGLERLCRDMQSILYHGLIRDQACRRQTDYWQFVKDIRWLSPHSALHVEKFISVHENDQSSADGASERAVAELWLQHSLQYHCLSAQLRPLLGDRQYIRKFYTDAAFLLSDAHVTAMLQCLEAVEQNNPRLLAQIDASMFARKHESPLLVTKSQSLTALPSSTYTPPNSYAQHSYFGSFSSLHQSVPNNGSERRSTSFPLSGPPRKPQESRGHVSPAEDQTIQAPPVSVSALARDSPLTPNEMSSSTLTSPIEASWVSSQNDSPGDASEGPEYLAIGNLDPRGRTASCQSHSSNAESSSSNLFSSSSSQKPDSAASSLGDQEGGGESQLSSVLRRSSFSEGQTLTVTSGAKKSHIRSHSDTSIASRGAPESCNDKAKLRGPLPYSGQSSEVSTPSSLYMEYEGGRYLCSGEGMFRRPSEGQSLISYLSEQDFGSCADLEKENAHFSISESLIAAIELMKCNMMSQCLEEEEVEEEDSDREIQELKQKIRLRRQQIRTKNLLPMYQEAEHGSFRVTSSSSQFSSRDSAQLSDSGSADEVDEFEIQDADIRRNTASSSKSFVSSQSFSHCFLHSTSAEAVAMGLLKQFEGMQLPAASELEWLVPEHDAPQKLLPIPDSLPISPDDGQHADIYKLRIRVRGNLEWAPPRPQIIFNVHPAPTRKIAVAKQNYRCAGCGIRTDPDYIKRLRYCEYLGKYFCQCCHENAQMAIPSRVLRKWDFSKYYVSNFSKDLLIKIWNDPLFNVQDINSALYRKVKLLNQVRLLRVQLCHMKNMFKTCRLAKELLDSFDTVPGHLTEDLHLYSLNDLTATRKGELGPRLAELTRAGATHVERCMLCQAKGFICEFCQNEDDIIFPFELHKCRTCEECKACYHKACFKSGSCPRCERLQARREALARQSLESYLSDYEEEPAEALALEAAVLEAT

Variants of: B1
Details: with ppp6_human PPP6C

Variant | effect of a mutation on the interaction
Y87C | with no effect

Variants of: B1
Details: with ppp6_human PPP6C
Remark: another data set of the same source

Variant | effect of a mutation on the interaction
F102C | with no effect

Variants of: B1
Details: with ppp6_human PPP6C
Remark: another data set of the same source

Variant | effect of a mutation on the interaction
F133L | with no effect

Variants of: B1
Details: with ppp6_human PPP6C
Remark: another data set of the same source

Variant | effect of a mutation on the interaction
F133V | with no effect

Variants of: B2
Details: with nfac1_human NFATC1, O95644

Variant | effect of a mutation on the interaction
Y87C | with no effect

Variants of: B2
Details: with nfac1_human NFATC1, O95644
Remark: another data set of the same source

Variant | effect of a mutation on the interaction
F133V | with no effect

Variants of: B2
Details: with nfac1_human NFATC1, O95644
Remark: another data set of the same source

Variant | effect of a mutation on the interaction
F133L | with no effect

Variants of: B2
Details: with nfac1_human NFATC1, O95644
Remark: another data set of the same source

Variant | effect of a mutation on the interaction
F102C | with no effect

Variants of: B3
Details: with rbtn1_human LMO1, P25800

Variant | effect of a mutation on the interaction
Y87C | with no effect

Variants of: B3
Details: with rbtn1_human LMO1, P25800
Remark: another data set of the same source

Variant | effect of a mutation on the interaction
F102C | with no effect

Variants of: B3
Details: with rbtn1_human LMO1, P25800
Remark: another data set of the same source

Variant | effect of a mutation on the interaction
F133V | with no effect

Variants of: B3
Details: with rbtn1_human LMO1, P25800
Remark: another data set of the same source

Variant | effect of a mutation on the interaction
F133L | with no effect

Variants of: B4
Details: with rad52_human RAD52, P43351

Variant | effect of a mutation on the interaction
F133L | with no effect

Variants of: B4
Details: with rad52_human RAD52, P43351
Remark: another data set of the same source

Variant | effect of a mutation on the interaction
F133V | with no effect

Variants of: B4
Details: with rad52_human RAD52, P43351
Remark: another data set of the same source

Variant | effect of a mutation on the interaction
Y87C | with no effect

Variants of: B4
Details: with rad52_human RAD52, P43351
Remark: another data set of the same source

Variant | effect of a mutation on the interaction
F102C | with no effect

Variants of: B5
Details: with pms2_human PMS2, P54278

Variant | effect of a mutation on the interaction
Y87C | with no effect

Variants of: B5
Details: with pms2_human PMS2, P54278
Remark: another data set of the same source

Variant | effect of a mutation on the interaction
F102C | with no effect

Variants of: B5
Details: with pms2_human PMS2, P54278
Remark: another data set of the same source

Variant | effect of a mutation on the interaction
F133V | with no effect

Variants of: B5
Details: with pms2_human PMS2, P54278
Remark: another data set of the same source

Variant | effect of a mutation on the interaction
F133L | with no effect

Variants of: B6
Details: with rubic_human RUBCN

Variant | effect of a mutation on the interaction
F133V | with no effect

Variants of: B6
Details: with rubic_human RUBCN
Remark: another data set of the same source

Variant | effect of a mutation on the interaction
F133L | with no effect

Variants of: B6
Details: with rubic_human RUBCN
Remark: another data set of the same source

Variant | effect of a mutation on the interaction
F102C | with no effect
